Measurements taken from publication PMC3621757, “Structural Plasticity in Human Heterochromatin Protein 1β” (PLoS ONE, 2013).

Molecular target: the molecule itself
Experiment: small angle X-ray scattering (SAXS); hHP1β (2–185) at 1.0, 2.0 and 5.0 mg/mL, 283 K; 20 mM sodium phosphate pH 6.5, 50 mM NaCl, 2 mM DTT; MW from forward scattering against bovine serum albumin

B1: full-length human Heterochromatin Protein 1β, hHP1β (2–185) (natural protein)
chain: not shown
notes: The His-tag is TEV-protease-cleavable; NMR samples were 15N-perdeuterated; also called full-length hHP1β; source: pET16b expression vector (Novagen); additional size-exclusion chromatography on Superdex200 for SAXS and DLS samples
stoichiometry N: 2
